The values that follow come from article PMC4869151 (ACS Infectious Diseases, 2016).

Assay [1] deals with T1, recombinant HAstV-2 capsid protein (Human astrovirus 2 (HAstV-2), entry …, UniProt Q82446, strain). Kind of assay: pull-down.
The target of assay [2] is T1, recombinant HAstV-2 capsid protein. As to the kind of experiment: ELISA.

B1: recombinant single-chain variable fragment of the PL-2 antibody (scFv, V domains shown)
VH: DVQLKQSGPGLVQPSQSLSITCTVSGFSLIDYGVHWVRQSPGKGLEWLGVIWTGGSTDYNAAFISRLTISKDNSKSQVFFKMNSLQANDTGIYYCGRPYYGNVMDYWGQGTSVTVSS
VL: DIQMTQTTSSLSASLGDRVTISCRASQDISNYLNWYQQKPDGTVKLLIYYTSRLHSGVPSRFSGSGSGTDYSLTISNLEQEDIATYFCQQGNTFPPTFGGGTKLEIK
As to B1, in assay [1], the binding result is “binds”.

B2: monoclonal antibody PL-2 (antibody, V domains shown)
VH: DVQLKQSGPGLVQPSQSLSITCTVSGFSLIDYGVHWVRQSPGKGLEWLGVIWTGGSTDYNAAFISRLTISKDNSKSQVFFKMNSLQANDTGIYYCGRPYYGNVMDYWGQGTSVTVSS
VL: DIQMTQTTSSLSASLGDRVTISCRASQDISNYLNWYQQKPDGTVKLLIYYTSRLHSGVPSRFSGSGSGTDYSLTISNLEQEDIATYFCQQGNTFPPTFGGGTKLEIK
With B2, the binding result in assay [2] was “binds”.
